Measurements reported in patent US7112317.

What was measured:
human endoglin (human) [1] = target: human endoglin (human) (UniProt P17813); assay: cell-based or functional assay
human endoglin (human) [2] = target: human endoglin (human) (UniProt P17813); assay: FACS, indirect immunofluorescence on HUVEC, antibody at 10 µg/ml, MTSA control subtracted
human endoglin (human) [3] = target: human endoglin (human) (UniProt P17813); assay: FACS, postconfluent HUVEC stained with 20 µg/ml TEC-11, sorted endoglin^hi fraction; mean (SD) of 2 studies
human endoglin (human) [4] = target: human endoglin (human) (UniProt P17813); assay: FACS, postconfluent HUVEC stained with 20 µg/ml TEC-11, sorted endoglin^lo fraction; mean (SD) of 2 studies
human endoglin (human) [5] = target: human endoglin (human) (UniProt P17813); assay: competitive binding inhibition on HUVEC by FACS; unlabelled TEC-4 against biotinylated TEC-11 as competitor, ratio 1:1

complement fixation relative to TEC-4 (human endoglin (human) [1]) [fold]	complement fixation: lysis of HUVEC with guinea-pig complement (trypan blue) (% lysis at 1 µg/ml) (human endoglin (human) [1])	specific mean fluorescence intensity (MFI) (human endoglin (human) [2])	MFI (human endoglin (human) [3])	MFI (human endoglin (human) [4])	complement fixation: lysis of HUVEC with guinea-pig complement (trypan blue) (% lysis at 100 µg/ml) (human endoglin (human) [1])	percent blocking (human endoglin (human) [5]) [%]	Substance
100	> 50	200	270	61.6	–	–	TEC-11 (antibody)
–	–	200	–	–	48	11	TEC-4 (antibody)
